Results: patent US20230110188A1 (ARGENX IIP, published 2023)
Positions count from the first letter of the chain named.

T1: Human MuSK (R&D Systems, cat. 10189-MK, histidine tag) (human, UniProt O15146 24-495)
T1 construct: Bought protein; also called human monomeric MuSK-6xhis; not shown: histidine tag (6xhis)
T1 sequence: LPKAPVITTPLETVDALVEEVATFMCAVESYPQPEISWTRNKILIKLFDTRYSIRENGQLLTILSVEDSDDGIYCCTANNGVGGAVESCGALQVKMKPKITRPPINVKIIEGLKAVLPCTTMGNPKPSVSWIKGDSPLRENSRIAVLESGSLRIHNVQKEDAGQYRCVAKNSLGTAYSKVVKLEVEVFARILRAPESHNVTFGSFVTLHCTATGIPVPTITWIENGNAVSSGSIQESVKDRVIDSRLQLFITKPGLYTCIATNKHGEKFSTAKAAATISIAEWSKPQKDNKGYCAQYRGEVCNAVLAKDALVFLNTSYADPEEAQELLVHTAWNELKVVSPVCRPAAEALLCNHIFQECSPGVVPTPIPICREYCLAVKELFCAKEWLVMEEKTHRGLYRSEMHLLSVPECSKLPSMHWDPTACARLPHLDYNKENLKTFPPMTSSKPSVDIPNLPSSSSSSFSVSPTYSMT

T2: human monomeric MuSK FLAG streptavidin (in house produced, batch 27-6-2019) (human, UniProt O15146 24-495)
T2 construct: also called full length MuSK; not shown: FLAG and streptavidin tags
T2 sequence: T1 sequence

T3: hMuSK delta 1-2-3 (Fz) (human, UniProt O15146)
T3 construct: truncated extracellular domain, captured by anti-FLAG
T3 sequence (truncated extracellular domain, looked up): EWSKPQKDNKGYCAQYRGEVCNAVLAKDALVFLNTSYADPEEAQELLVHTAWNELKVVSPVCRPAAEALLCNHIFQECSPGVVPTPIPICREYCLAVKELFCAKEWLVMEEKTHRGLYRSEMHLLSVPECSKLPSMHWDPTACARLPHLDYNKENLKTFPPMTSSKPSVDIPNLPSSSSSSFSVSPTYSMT

B1: 3D10a (antibody, human IgG1, kappa, L234A L235A, V domains shown)
VH: EVQLVESGGGLVKPGGSLRLSCAASGFTFSASTMAWVRQAPGKGLEWVSSVSGDSHHIYYADSLKGRFTISRDNAKNSLYLQMNSLRAEDTAVYYCARERLLRLGVGFDSWGQGTLVTVSS
VL: DIQMTQSPSSLSASVGDRVTITCRASQRISGFVNWYQQKPGKAPKLLIYAASTLQSGVPSRFSGSGSGTDFTLTISSLQPEDFATYYCQQSYSPLYTFGQGTKLEIKR
B2: 3D9b (antibody, human IgG1, kappa, L234A L235A, V domains shown)
VH: EVQLVESGGGLVKPGGSLRLSCAASGFTFSTYTMHWVRQAPGKGLEWVSSISSRSAYKYYADSVKGRFTISRDNAKNSLYLQMNSLRAEDTAVYYCARDFFQLGPPRFDSWGQGTLVTVSS
VL: B1 VL with G31S, V33L, A50G, T53N, L95S
B3: 4D3 (antibody, human IgG1, kappa, L234A L235A, V domains shown)
VH: B1 VH with A31S, S32Y, A35T, V51I, G53S, D54G, S55G, H57Y, A61T, S110F
VL: B1 VL with R28S, F32Y, V33L, P94A
B4: 3F6c (antibody, human IgG1, kappa, L234A L235A, V domains shown)
VH: EVQLVESGGGLVKPGGSLRLSCAASGFTFSSYTMDWVRQAPGKGLEWVSSIGSNGDYIYYADSVRGRFTISRDNAKNSLYLQMNSLRAEDTAVYYCARGQLAVAGTHFDYWGQGTLVTVSS
VL: B1 VL with R28K, I29V, S30N, G31K, F32Y, Y96S

Target: T1, Human MuSK (R&D Systems, cat. 10189-MK, …)
Assay: SPR (Biacore), pH 5.5 (summary table, repeats the average of Table 17)
Description: (§1) In order to study pH dependent binding of our antibodies to MuSK, the Biacore was used with the same setup as described in the paragraph entitled “Binding affinity for mouse, human and rhesus monkey recombinant MuSK in Biacore”. 6. […] For the other antibodies there is no real difference observed between pH 7.4 and 5.5.

Point of comparison: B2, koff 4e-05 s⁻¹. Against it:
- B1 — 2.2-fold higher, 9e-05 s⁻¹
- B3 — 4-fold higher, 0.00016 s⁻¹
- B4 — 5-fold higher, 0.0002 s⁻¹

Target: T1, Human MuSK (R&D Systems, cat. 10189-MK, …)
Assay: SPR (Biacore), antibody captured on anti-hFc chip; 0.3125 nM; dissociation pH 7.4
Description: as §1

Point of comparison: B2, koff 0.00018 s⁻¹. Against it:
- B1 — the same, 0.00018 s⁻¹
- B3 — within 1.5-fold, 0.00013 s⁻¹
- B4 — within 1.5-fold, 0.00015 s⁻¹

Target: T1, Human MuSK (R&D Systems, cat. 10189-MK, …)
Assay: SPR (Biacore), MuSK-coated chip presaturated with 500 nM 3D10a (competitor)
Experimental: (§2) A chip was coated with ˜5000 RU of human MuSK (Lot nr DHUCO 11908A, batch nr 1089_MK). In a first experiment the saturating concentration of the pre-leads was determined. This is the concentration where the amplitude of a specific pre-lead doesn't increase anymore when additional pre-lead is injected on the immobilized MuSK.

Point of comparison: B4, “amplitude of prelead after presaturating MuSK (RU)” value 26 RU. Against it:
- B1 — higher, 56 RU
- B2 — higher, 169 RU
- B3 — higher, 42 RU

Point of comparison: B1, “extra amplitude (%)” value 1.8%. Against it:
- B2 — higher, 8%
- B3 — lower, 1.6%
- B4 — lower, 1%

Point of comparison: B1, “normalized extra amplitude (%)” value 0.2%. Against it:
- B2 — higher, 6.4%
- B3 — lower, 0%
- B4 — lower, -0.6%

Target: T1, Human MuSK (R&D Systems, cat. 10189-MK, …)
Assay: SPR (Biacore), MuSK-coated chip presaturated with 500 nM 3D9b (competitor)
Experimental: as §2

Point of comparison: B1, “amplitude of prelead after presaturating MuSK (RU)” value -1 RU. Against it:
- B2 — higher, 40 RU
- B3 — lower, -3 RU
- B4 — lower, -5 RU

Point of comparison: B3, “extra amplitude (%)” value -1.6%. Against it:
- B1 — higher, -0.5%
- B2 — higher, 1%
- B4 — lower, -2.1%

Point of comparison: B3, “normalized extra amplitude (%)” value -2.6%. Against it:
- B1 — higher, -1.5%
- B2 — higher, 0%
- B4 — lower, -3.1%

Target: T1, Human MuSK (R&D Systems, cat. 10189-MK, …)
Assay: SPR (Biacore), antibody captured on anti-hFc chip; 2.5 nM; dissociation pH 7.4
Description: as §1

Point of comparison: B1, koff 0.00018 s⁻¹. Against it:
- B2 — 2-fold lower, 9e-05 s⁻¹
- B3 — within 1.5-fold, 0.00015 s⁻¹
- B4 — 3-fold lower, 6e-05 s⁻¹

Target: T1, Human MuSK (R&D Systems, cat. 10189-MK, …)
Assay: SPR (Biacore), MuSK-coated chip, antibody alone (run of first antibody 4D3)
Experimental: as §2

Point of comparison: B4, “amplitude of prelead without presaturating MuSK (RU)” value 1010 RU. Against it:
- B1 — lower, 951 RU
- B2 — higher, 1100 RU
- B3 — lower, 859 RU

Target: T1, Human MuSK (R&D Systems, cat. 10189-MK, …)
Assay: SPR (Biacore), pH 7.4 (summary table, repeats the average of Table 16); pH 7.4
Description: as §1

Binder B1 has a koff of 0.00016 s⁻¹.

Target: T2, human monomeric MuSK FLAG streptavidin …
Assay: epitope binning ELISA (coated anti-MuSK Fab, MuSK, IgG, anti-Fc HRP); competitor: 4D3
Experimental: For epitope binning—An ELISA plate was coated at 1 μg/ml of the anti-MuSK Fabs and incubated overnight at 4° C. Next, the plate was wash with PBS followed by blocking with 1% casein in PBS for one hour. After washing the plate, 1 μg/ml of human monomeric MuSK (in house produced, batch 27-6-2019) was incubated for one hour at RT. The plate was washed and anti-MuSK antibodies at 0.3-10 μg/ml were added to the plate and incubated for one hour at RT. After washing the plate, detection antibody (goat anti-human Fc HRP (Jackson Immunoresearch cat. 109-035-098)) was added at 5000 fold dilution in PBS 0.1% casein. The plate was incubated for one hour at RT and washed with PBS-T. TMB was added and the reaction was stopped by adding H2504. […]
For the epitope binning ELISA, a plate was coated with anti-MuSK Fab and human monomeric MuSK was added after blocking the plate. Next the different antibodies were added and allowed to bind.

Point of comparison: B4, “OD 450 nm” value 0.076 OD. Against it:
- B1 — lower, 0.062 OD
- B2 — higher, 0.086 OD
- B3 — lower, 0.023 OD

Target: T3, hMuSK delta 1-2-3 (Fz)
Assay: ELISA, hMuSK delta 1-2-3 (Fz) captured on anti-FLAG coat, antibody titrated, anti-human Fc HRP detection, OD450
Experimental: For binding to MuSK domains—An ELISA plate was coated with 0.5 μg/ml of anti-FLAG (M2 clone, Sigma Cat. F3165) and incubated overnight at 4° C. Next, the plate was washed with PBS and blocked with 1×PBS 1% casein for two hours at RT. After washing the plate, human monomeric MuSK FLAG streptavidin (batch 27-6-2019) and truncated MuSK variants (batch 3-9-2019) at 1 μg/ml in PBS where incubated for one hour at RT. After washing the plate, antibodies were diluted in blocking buffer and added to the plate. After a one hour incubation at RT, the plate was washed. Next, detecting antibody was added and incubated for one hour at RT (anti-human Fc HRP (1/5000) (clone 5A9, cat. No. Ab7499, ABCAM)) in blocking buffer. Lastly, the plate was washed with PBS and TMB was added and the reaction was stopped with 0.5 M H2SO4. OD 450 nm was determined by the Tecan Sunrise ELISA plate reader.
For the MuSK domain binding ELISA, binding of anti-MuSK antibodies to FLAG captured human monomeric MuSK and truncated variants was tested (FIG. 6). 3D9b, 3F6c, 3D10a, 4D3 and 3B5 bound only to full length MuSK, no binding was observed against the truncated MuSK variants. Therefore, we conclude that our antibodies bind to the Ig1 domain.

B1: no binding (tested: log(conc) 4.2 (about 16000 ng/ml)).
B2: no binding (tested: log(conc) 4.2 (about 16000 ng/ml)).
B3: no binding (tested: log(conc) 4.2 (about 16000 ng/ml)).
B4: no binding (tested: log(conc) 4.2 (about 16000 ng/ml)).
